Among the data in patent WO1992011383A1 are Kd values, retold here.

This assay addresses recombinant human TNF-alpha (human) (UniProt P01375). The assay is described as follows: Scatchard analysis in solution: 125I-TNF and unlabelled TNF, antibody captured on anti-IgG agarose beads.
UniProt P01375, sequence (P01375 77-233 limits assumed): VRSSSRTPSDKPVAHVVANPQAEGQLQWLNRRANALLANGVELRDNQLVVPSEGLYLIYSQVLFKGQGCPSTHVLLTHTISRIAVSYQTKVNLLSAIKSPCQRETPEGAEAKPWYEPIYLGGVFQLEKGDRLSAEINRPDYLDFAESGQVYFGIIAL

For “CDP571 (CDR-grafted CB0010, gEU light chain / 2hEUg heavy chain) (antibody)”, the dissociation constant Kd is 0.14 nM.
